# B1: HDV Ribozyme (parent)
# chain: GGCCGGCAUGGUCCCAGCCUCCUCGCUGGCGCCGGCUGGGCAACAUUCCGAGGGGACCGUCCCCUCGGUAAUGGCGAAUGGGACCCA
# Variants of: B1
# Assay: self-cleavage, relative activity (ratio to wild type); higher = more cleavage; co-transcriptional
row,Variant,self-cleavage
1,G17A G38A,0.104
2,G17U G40C,0.189
3,G17A C32U,0.369
4,G17A C32G,0.0415
5,C18A G53U,0.117
6,C18A G53C,0.214
7,C18U G76U,1.05
8,C18U U23A,0.519
9,C18U U23C,0.415
10,G17C A43C,0.119
11,C18A A83G,0.0443
12,G17U G25C,0.0811
13,G17U G25A,0.0489
14,C18G C58G,0
15,C18G C58U,0.0978
16,C18A U72A,0.0504
17,G17A G53U,0.718
18,C19A C62U,0.111
19,C19A C62G,0.104
20,C18A G68U,0.147
21,G17A G34U,0.0346
22,C18U U46G,0.277
23,G17U A78G,0.201
24,C19A C22A,0.112

row,Variant,self-cleavage
1,G17A C64G,0.496
2,G17C C66G,0.32
3,C19A C24U,0.0674
4,C18U U72A,0.175
5,C18U U72G,0.287
6,C18U U72C,0.193
7,C18U U65C,0.831
8,C19A C57U,0.155
9,G17C G82C,0.133
10,C18G G34A,0.136
11,G17A G50A,0.76
12,G17C A83U,0.256
13,G17C A83G,0.131
14,G17A G28C,0.0489
15,C18G G35C,0.104
16,C18G C30A,0.0739
17,C18G C30U,0.0386
18,G17U A83G,0.405
19,G17U A83C,0.219
20,C18G A45G,0.0639
21,G17U A71U,0.443
22,G17U U37C,0.612
23,G17C A71G,0.475
24,G17C A71U,0.32

row,Variant,self-cleavage
1,C18U C44U,0.258
2,G17C G52U,0.363
3,G17C G52A,0.415
4,G17A C75U,0.138
5,G17A C75A,0.128
6,G17A U46C,0.506
7,G17A C30A,0.651
8,G17A G67A,0.501
9,C18U G31A,0.0702
10,C18A A42U,0.0437
11,C18A A42C,0.0707
12,G17C G59A,0.231
13,C18G G52U,0.203
14,C18G C41U,0.161
15,G17A U37A,0.0415
16,G17A C62U,0.554
17,G17A G68C,0.575
18,C18A U65C,0.101
19,C18A U65A,0.0723
20,G17U C58G,0.277
21,G17U C58U,0.708
22,G17C C44U,0.142
23,C19A C30A,0.0357
24,G17C C64G,0.298

row,Variant,self-cleavage
1,G17U C62U,0.602
2,G17U C62G,0.492
3,G17C G76A,0.446
4,G17C G76U,0.773
5,G17C G76C,0.499
6,C18G C61U,0.0519
7,G17U C21A,0.0339
8,G17U C21G,0
9,G17A G31A,0.234
10,G17C C32G,0
11,C18U A45U,0.361
12,G17U C61U,0.471
13,C19A C36G,0.0923
14,C19A C36U,0.0468
15,G17C U60C,0.208
16,C18A C63G,0.0791
17,G17C C63U,0.397
18,G17U U72C,0.142
19,G17C U47G,0.217
20,G17C U47A,0
21,G17C U47C,0.519
22,C18G U20A,0.161
23,C18U G34U,0.0455
24,C18U G34A,0.117

row,Variant,self-cleavage
1,C18U G34C,0.155
2,C18A U20A,0.0875
3,C18U G73U,0.111
4,C18U A70G,0.752
5,C18U A70U,0.658
6,C18U A70C,0.514
7,C19A A43U,0.0222
8,G17U G67A,0.564
9,C18U A51C,0.901
10,G17C G34C,0.0723
11,G17U A51C,0.831
12,C18A G73C,0.0396
13,C18U C58U,0.554
14,G17A G25A,0.117
15,G17U C85U,0.614
16,G17U C85A,0.538
17,G17U C85G,0.554
18,G17A C33U,0.566
19,C18G U65G,0.115
20,C18U C66G,0.813
21,C18U C22U,0.121
22,G17U C30U,0.716
23,C18G G82C,0
24,C18G U37C,0.256

row,Variant,self-cleavage
1,C18G U37G,0.0692
2,C18A G25U,0.162
3,C18A C58A,0.285
4,G17U G53A,0.641
5,G17U G53C,0.354
6,G17U G53U,0.42
7,C18U G67U,0.665
8,C18U G67A,0.468
9,C18U G67C,0.436
10,G17A G73A,0.34
11,G17U A70U,0.574
12,C18G U47A,0
13,C18G C21A,0
14,G17C A56C,0.302
15,G17C C75U,0
16,G17A C66A,0.748
17,C18A G35A,0.199
18,G17U G76A,0.73
19,G17U G52U,0.517
20,C18G A71C,0.172
21,C18G A71U,0.0723
22,C18U U20G,0.277
23,C18U U20A,0.0339
24,C18U A83C,0.227

row,Variant,self-cleavage
1,G17U C18G,0.095
2,C18A C48U,0.0627
3,C18A C62U,0.264
4,C18U U60A,0.852
5,C18U U60G,0.633
6,G17U C26A,0.491
7,G17U U20A,0.0378
8,G17U U20C,0.0573
9,C18A G82A,0.149
10,C18A G82C,0.122
11,C18G C33G,0.119
12,C18U U79G,0.119
13,C18G C19U,0.0898
14,G17C A77U,0
15,G17C A77G,0.0615
16,G17A G76U,0.863
17,G17A G76C,0.665
18,C18A G67A,0.163
19,G17U G68C,0.542
20,G17U G68A,0.478
21,G17A C41A,0.47
22,G17A C41U,0.46
23,C18U C63U,0.733
24,C18U C63G,0.607

row,Variant,self-cleavage
1,C18G C62U,0.308
2,C19A A87U,0.223
3,C18U G40A,0.691
4,C18U G40C,0.281
5,G17C C61A,0.185
6,G17C G39U,0.108
7,C18G U79A,0.0615
8,C18G C22U,0.0504
9,C18G A70C,0
10,G17A G29U,0.0767
11,G17A G29C,0.0405
12,C18A C24A,0.163
13,C18A C24U,0.104
14,G17C U20G,0.128
15,G17A G40U,0.562
16,C18G G39C,0.0755
17,C18A C61U,0.237
18,C18G G53C,0.227
19,C18G G53A,0.175
20,G17C G74A,0.089
21,G17C U46A,0.237
22,G17A G55A,0.705
23,G17A C44G,0.268
24,C18U C41A,0.597

row,Variant,self-cleavage
1,G17A C26U,0.726
2,G17C G40C,0
3,C18U C21A,0.115
4,C18U C21U,0.0911
5,G17A C22A,0.128
6,G17A C22U,0.194
7,G17U G50C,0.496
8,C18U C36A,0.0739
9,C18U C36U,0.198
10,C19A C84A,0.0519
11,C18G C85G,0
12,C18G C85U,0.095
13,C18G C85A,0.0554
14,C18U G54U,0.661
15,G17C G38C,0.0831
16,G17C G38A,0.0396
17,G17C G29C,0.166
18,G17C U23A,0.344
19,C18U G81U,0.281
20,G17C C48U,0.175
21,C18G G81U,0
22,C18G C63A,0.145
23,G17C A70C,0.0536
24,G17A U60G,0.712

row,Variant,self-cleavage
1,G17A G52U,0.728
2,C18A G38U,0.0652
3,C18A G38C,0.145
4,C18G G55C,0.185
5,C18A U47A,0.0692
6,C18G C66G,0.0665
7,C18G C75G,0.229
8,G17U C48A,0.538
9,G17C C24G,0.0898
10,G17U C64U,0.521
11,C18G C49A,0.0791
12,C18G C49G,0.0723
13,G17C C41A,0.111
14,C18A A71U,0
15,C18U G82A,0.194
16,C18U G38A,0.176
17,G17A G74A,0.132
18,C18U G59A,0.896
19,C18U G59U,0.67
20,C18U C57G,0.831
21,C18G G31U,0.0396
22,C18U C62U,0.831
23,G17C C57U,0.256
24,C18G G59A,0.128

row,Variant,self-cleavage
1,C18G G59U,0.312
2,C18U U27G,0.391
3,G17C U27G,0.499
4,G17U C63A,0.517
5,G17A U23C,0.462
6,C18U C33G,0.252
7,C18G G76C,0.147
8,G17A G54A,0.786
9,G17A C86A,0.538
10,G17U U46C,0.356
11,G17A C63U,0.88
12,C18A C33G,0
13,G17U C49A,0.614
14,C18A U23G,0.155
15,C18A U23A,0.122
16,C18A C64A,0.136
17,C18A A77U,0
18,G17C A51C,0.308
19,G17U C41G,0.0462
20,G17A G35U,0.0906
21,C19A C75U,0.058
22,C19A C75G,0.0528
23,C18G C57A,0.0536
24,C18G G29C,0.939

row,Variant,self-cleavage
1,C18U A87C,0.692
2,C18U A87G,0.733
3,C18G U69C,0.151
4,C18G U69A,0.0489
5,C18G U69G,0.128
6,C18A U46A,0.0923
7,C18U U69G,0.453
8,G17A C21U,0
9,C18G G54U,0.0563
10,C18A C32G,0.0875
11,C18A C32U,0.145
12,G17C C33U,0.0475
13,G17A C58G,0.812
14,C19A A56U,0.122
15,G17U G38U,0.0369
16,G17A C48G,0.46
17,G17A C48U,0.785
18,G17A C48A,0.506
19,C19A C21U,0.134
20,C18G C86A,0
21,G17U U47C,0.298
22,C18A G40A,0.0426
23,C18U G80A,0.196
24,C18U G80C,0.102

row,Variant,self-cleavage
1,C18U G29C,0.196
2,C18A G31C,0.163
3,C19A A78C,0.0248
4,G17U C32G,0.0386
5,G17U C32A,0.136
6,C18G G50C,0
7,C18U C32U,0.327
8,C18G C84G,0.237
9,C18G C84U,0.0386
10,C18U G68C,0.544
11,C18U G68U,0.635
12,C18A G76A,0.0678
13,G17C G35C,0.0437
14,C18G C48U,0
15,G17U A56U,0.533
16,C18U C19U,0
17,C18U C19G,0.0297
18,G17U G31U,0.0723
19,C18G U27C,0.237
20,C18A G52C,0.0346
21,C18A C30G,0.0573
22,C18A C30A,0.141
23,G17U C86U,0.612
24,G17U G28C,0.0652

row,Variant,self-cleavage
1,G17A C49G,0.565
2,G17A C49U,0.853
3,G17U C75A,0.198
4,C18A C85U,0.158
5,C18A C85A,0.224
6,C18A C75A,0.0906
7,G17C G54A,0.262
8,G17C G54U,0.256
9,C18U C85G,0.975
10,G17C G31C,0.0475
11,C18G G73C,0.104
12,G17C A45U,0.107
13,G17U A87U,0.548
14,G17U A87G,0.499
15,C18G C26U,0.388
16,G17A C36G,0.0475
17,G17C C21U,0.0923
18,C18A U69C,0.138
19,G17U A77U,0.104
20,G17U A77G,0.0536
21,C18A G54C,0.189
22,C18A C41U,0.0339
